Test results: the supplement of paper PMC9112550, “Optimization of the antimicrobial peptide Bac7 by deep mutational scanning” (BMC Biology, 2022)

Test system: Escherichia coli TOP10
Test: shrunken log2 fold change of peptide-encoding DNA abundance (4.5 h post-induction vs induction); higher = less antimicrobial activity (less host growth inhibition)
Conditions: time post-induction: 4.5 h; library: site-saturation at positions 5, 18, 19, 20
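Note: peptides expressed intracellularly from a pBAD plasmid library in pooled LB shake-flask culture, induced with 0.3% L-arabinose, DNA abundance read by NGS, three biological replicates, DESeq2 with apeglm shrinkage.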

| Sequence | shrunken log2 fold change |
| --- | --- |
| RRIRGRPPRLPRPRPRPHQKPRP | 0.0462 |
| RRIRSRPPRLPRPRPRPYVSPRP | -0.136 |
| RRIRTRPPRLPRPRPRPMMHPRP | -0.302 |
| RRIRFRPPRLPRPRPRPQVHPRP | -0.262 |
| RRIRQRPPRLPRPRPRPQRQPRP | 0.0235 |
| RRIRPRPPRLPRPRPRPNQWPRP | 0.139 |
| RRIRARPPRLPRPRPRPESKPRP | 0.015 |
| RRIRTRPPRLPRPRPRPHFSPRP | 0.0329 |
| RRIRARPPRLPRPRPRPWLFPRP | 0.547 |
| RRIRQRPPRLPRPRPRPTFVPRP | -0.692 |
| RRIRYRPPRLPRPRPRPTNPPRP | -0.165 |
| RRIRKRPPRLPRPRPRPKELPRP | 0.566 |
| RRIRGRPPRLPRPRPRPMCFPRP | 0.716 |
| RRIRIRPPRLPRPRPRPTKPPRP | -0.0472 |
| RRIRQRPPRLPRPRPRPFMMPRP | -0.25 |
| RRIRARPPRLPRPRPRPAQSPRP | 0.538 |
| RRIRRRPPRLPRPRPRPFETPRP | -0.207 |
| RRIRGRPPRLPRPRPRPRACPRP | 0.847 |
| RRIRIRPPRLPRPRPRPKMPPRP | 0.0103 |
| RRIRGRPPRLPRPRPRPIREPRP | -0.0123 |
| RRIRCRPPRLPRPRPRPVVTPRP | -0.0488 |
| RRIRGRPPRLPRPRPRPFLKPRP | 0.186 |
| RRIRPRPPRLPRPRPRPTFFPRP | 0.212 |
| RRIRLRPPRLPRPRPRPARLPRP | 0.647 |
| RRIRSRPPRLPRPRPRPKFNPRP | -0.573 |

| Sequence | shrunken log2 fold change |
| --- | --- |
| RRIRDRPPRLPRPRPRPPNVPRP | -0.0362 |
| RRIRTRPPRLPRPRPRPWDYPRP | -0.139 |
| RRIRHRPPRLPRPRPRPIWYPRP | -0.75 |
| RRIRRRPPRLPRPRPRPLNPPRP | -0.00196 |
| RRIRWRPPRLPRPRPRPTMFPRP | 0.0589 |
| RRIRIRPPRLPRPRPRPKLGPRP | -0.217 |
| RRIRVRPPRLPRPRPRPWGKPRP | -0.0952 |
| RRIRCRPPRLPRPRPRPMIQPRP | -0.417 |
| RRIRGRPPRLPRPRPRPPNQPRP | 0.535 |
| RRIRPRPPRLPRPRPRPNPKPRP | 0.0202 |
| RRIRRRPPRLPRPRPRPGYYPRP | -0.105 |
| RRIRRRPPRLPRPRPRPYFDPRP | -0.823 |
| RRIRWRPPRLPRPRPRPGDPPRP | 1.14 |
| RRIRGRPPRLPRPRPRPHTDPRP | 0.103 |
| RRIRVRPPRLPRPRPRPMLNPRP | -0.135 |
| RRIRPRPPRLPRPRPRPNYGPRP | 0.111 |
| RRIRSRPPRLPRPRPRPPPVPRP | 0.745 |
| RRIRSRPPRLPRPRPRPFACPRP | -0.655 |
| RRIRHRPPRLPRPRPRPQRIPRP | -0.00331 |
| RRIRQRPPRLPRPRPRPNYKPRP | -0.545 |
| RRIRYRPPRLPRPRPRPNLLPRP | -0.213 |
| RRIRKRPPRLPRPRPRPENFPRP | -0.00264 |
| RRIRLRPPRLPRPRPRPFVWPRP | 0.118 |
| RRIRFRPPRLPRPRPRPSEVPRP | -0.0167 |
| RRIRNRPPRLPRPRPRPEHQPRP | -0.029 |

| Sequence | shrunken log2 fold change |
| --- | --- |
| RRIRGRPPRLPRPRPRPGWTPRP | 0.708 |
| RRIRKRPPRLPRPRPRPGPNPRP | 0.795 |
| RRIRFRPPRLPRPRPRPDKYPRP | -1.65 |
| RRIRQRPPRLPRPRPRPQFMPRP | -0.302 |
| RRIRPRPPRLPRPRPRPQDPPRP | -0.135 |
| RRIRPRPPRLPRPRPRPYGQPRP | -0.169 |
| RRIRNRPPRLPRPRPRPEPTPRP | 0.587 |
| RRIRNRPPRLPRPRPRPTMEPRP | 0.274 |
| RRIRHRPPRLPRPRPRPFTFPRP | -0.0857 |
| RRIRCRPPRLPRPRPRPQPWPRP | 0.125 |
| RRIRVRPPRLPRPRPRPITHPRP | -0.171 |
| RRIRLRPPRLPRPRPRPTTWPRP | 0.0965 |
| RRIRRRPPRLPRPRPRPLWDPRP | 0.56 |
| RRIRFRPPRLPRPRPRPGWCPRP | 0.109 |
| RRIRGRPPRLPRPRPRPWLPPRP | -0.0942 |
| RRIRDRPPRLPRPRPRPFLAPRP | 0.341 |
| RRIRGRPPRLPRPRPRPPISPRP | 0.163 |
| RRIRWRPPRLPRPRPRPEIRPRP | 0.00534 |
| RRIRHRPPRLPRPRPRPHIVPRP | -0.104 |
| RRIRSRPPRLPRPRPRPDYYPRP | -0.831 |
| RRIRSRPPRLPRPRPRPWADPRP | -0.307 |
| RRIRVRPPRLPRPRPRPKKQPRP | 0.216 |
| RRIRCRPPRLPRPRPRPALLPRP | 0.292 |
| RRIRARPPRLPRPRPRPVGGPRP | 0.571 |
| RRIRARPPRLPRPRPRPEAEPRP | 1.61 |
